Reference: article PMC3492551 (Nature structural & molecular biology, 2012)
Values belong to the molecule of their own block, whether it stands above or below them.

How the values were obtained:
MPP8 50-118 = MPP8 50-118 (UniProt Q99549); experiment: fluorescence polarization titration; conditions: reference: H3K9me3 peptide; sites S10
UHRF1 126-280 [1] = target: UHRF1 126-280 (UniProt Q96T88); experiment: biotin-peptide streptavidin pulldown, western blot; conditions: sites S10
UHRF1 126-280 [2] = target: UHRF1 126-280 (UniProt Q96T88); experiment: histone peptide microarray; conditions: sites S10
[3] = target: T1, UHRF1 tandem Tudor domain (TTD), residues 126-280 (human, UniProt Q96T88 126-280); experiment: NMR titration
T1 sequence (looked up): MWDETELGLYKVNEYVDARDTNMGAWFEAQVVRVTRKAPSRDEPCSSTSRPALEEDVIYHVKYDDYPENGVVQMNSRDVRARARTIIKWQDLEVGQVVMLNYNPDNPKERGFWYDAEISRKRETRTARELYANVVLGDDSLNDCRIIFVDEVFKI

Molecule: histone H3 (from UniProt P68431) H3K9me2S10p peptide
binding against the reference (UHRF1 126-280 [1]; reference: H3K9me2 peptide): same
binding against the reference (UHRF1 126-280 [2]; reference: H3K9me2 peptide): same

Molecule: histone H3 (from UniProt P68431) H3K9me3S10p peptide
binding against the reference (UHRF1 126-280 [1]; reference: H3K9me3 peptide): same
binding against the reference (UHRF1 126-280 [2]; reference: H3K9me3 peptide): same

More lines, now with the values ahead:

KD (MPP8 50-118): lost; reference 0.23
Molecule: histone H3 1-20 (from UniProt P68431) H3K9me3S10p peptide

binding result [3]: binds
Molecule: ARTKQTARKST (not fully specified; trimethyl-lysine at 9; phosphoserine at 10) [doubly modified H3 peptide (residues 1-11, ARTKQTARKme3SpT)]
